# Measurements taken from patent US20200087363A1 (IMMATICS BIOTECHNOLOGIES, published 2020).
# Target: T1, HLA-B*44:05 (human)
# T1 construct: also called peptide-receptive MHC class I molecule
# Assay: UV peptide exchange, anti-b2m ELISA
# Protocol: Only peptide candidates that can effectively bind and stabilize the peptide-receptive MHC molecules prevent dissociation of the MHC complexes. To determine the yield of the exchange reaction, an ELISA was performed based on the detection of the light chain (β2m) of stabilized MHC complexes. The assay was performed as generally described in Rodenko et al. (Rodenko et al., 2006)
# 96 well MAXISorp plates (NUNC) were coated over night with 2 ug/ml streptavidin in PBS at room temperature, washed 4× and blocked for 1 h at 37° C. in 2% BSA containing blocking buffer. […] Peptide-MHC monomers of the UV-exchange reaction were diluted 100-fold in blocking buffer. Samples were incubated for 1 h at 37° C., washed four times, incubated with 2 ug/ml HRP conjugated anti-β2m for 1 h at 37° C., washed again and detected with TMB solution that is stopped with […]. Absorption was measured at 450 nm.
row,Binder,peptide exchange yield
1,EMPGGPVW,50 to 75%
2,GESVSWHLF,50 to 75%
3,IEIKDRLQL,50 to 75%
4,AEIEADRSYQH,50 to 75%
5,KEVDPTGHSF,50 to 75%
6,QEPFTRPVL,50 to 75%
7,LEVLHQGQW,50 to 75%
8,RESHLTEIRQY,20 to 50%
9,EEAMKRLSY,20 to 50%
10,DEINHQSL,20 to 50%
11,EVEVGEVKSW,10 to 20%
12,AEANPRDLGASW,50 to 75%
13,QEIDQKRLEF,20 to 50%
14,MEFKTLNKN,20 to 50%
15,QEIDRGQYI,> 75%
16,KEVDPASNTYTL,20 to 50%
17,AESFTSGRHYW,> 75%
18,NENLDYAIL,> 75%
19,IEAPKLMVV,10 to 20%

# Results, then the binder that gave them:
row,peptide exchange yield,Binder
1,50 to 75%,SEASQSPQY
2,50 to 75%,YENIPVDKV
3,50 to 75%,RYFDENIQKFIW
4,50 to 75%,REYQEVMNSKL
5,> 75%,VEVKYEGHW
6,10 to 20%,VTEGAVEVKY
7,50 to 75%,SEVPVDSHYY
8,50 to 75%,SEVPVDSHY
9,20 to 50%,VEAQDRETW
10,50 to 75%,TELTEARVQVW
11,> 75%,VEVNGVPRW
